Data from patent publication US20150322137A1 (EVEC, published 2015).

B1: EV046150 (antibody, human IgG1, kappa, V domains shown)
VH: RVQLVQSGAEVKKPGSSVRVSCKASGGTFSNYSISWVRQVPGQGLEWMGRIIPILPLSSYPQQFQGRVAITADKSSTTAYMELSSLRIEDTAIYYCARDALRPEGGYYYYYFDVWGTGTTVTVSS
VL: EIELTQSPGTLSLSPGERATLSCRANQIIGDTSLAWYQQKPGQAPRLLIFGASSRATGIPDRFSGSGFGSDFTLTITSLEPEDFAVYYCQQYGSSPTFGQGTKVEIKR
B2: EV046143 (antibody, human IgG1, kappa, V domains shown)
VH: QVQLVQSGAEVQKPGSSVKVSCKTSGDTFNNYALSWVRQAPGQGPEWMGRIIPLVEMANYAQKFQGRVTITADKSTTTIYMELSSLRSEDTAMYYCARDGYQGGFPYFFDSWGQGTLVTVSS
VL: EVVLTQSPGTLSLSPGERATLSCRASQSVSNYLAWYQQKPGQAPRLLISAASSRATGIPDRFGGSGSGADFTLTISRLEPEDFAVYYCQQYGFSPGTFGQGTKVEIRR
B3: EV046142 (antibody, human IgG1, lambda, V domains shown)
VH: QVQLVQSGAEVKKPGSSVRVSCKASGGTFSTYGINWVRQARGQGLEWMGTVIPTFEKTYYAQGFQGRVTIAADGSKNTVYMELRRLTSEDSAIYFCTRFFTPYCSGGSCYLDLWGPGTLVTVSS
VL: QSVLTQPPSVSGAPGQSVTISCAGSSSNIGAGYDVHWYQHLPGTAPRLLIYSNTNRPSGVPDRFSGSKSGASASLAITGLQAEDEADYYCQSYDSGVVFGGGTKLTVLR
B4: EV046141 (antibody, human IgG1, lambda, V domains shown)
VH: QVQLVQSGAEVKKPGASVKVSCKASGYTFADYYIHWLRQAPGQGLEWLGRINPSNSRTTYPQKFQGRVTVTRDTSTSTVYMELSSLRSADTAVYYCARDGLRMGYYYMDVWGKGTTVTVSS
VL: QSVLTQPPSVSGAPGQRVTISCTGSSSNIGAGYDVHWYQQIPGTAPKLLIFGNYNRPSGVPDRFSASKSGTSASLAITGLQAEDEAHYYCQSYDTTLDGAVFGGGTKLTVLG
B5: EV046147 (antibody, human IgG1, lambda, V domains shown)
VH: QVQLVQSGAEVKKPGASVKVSCKASGYTFSVYGISWVRQAPGHGLEWMGWISAYNGDRGYAQKVQGRITMTTDTSASTAYMELRSLTSDDTAVYYCATTSSGVPGIYWGQGSLVTVSS
VL: SYALVQPPSVSVSPGQTARITCFGPALPKKYAYWYQHKSGQAPMLVIYEDTKRPSGIPQRFSGSTSGATATLTIRGAQVEDEADYYCYSTDSSGHERVFGGGTKLTVLG

Target: T1, F protein of human metapneumovirus strain JPS03-180 (type A1), on infectious virus (human metapneumovirus, strain JPS03-180 …)
Test: cell-based or functional assay

Binder | IC50, neutralizing activity (hMPV infection of LLC-MK2 cells)
B1 | 0.049 µg/mL
B2 | 0.13 µg/mL
B3 | 0.22 µg/mL
B4 | 0.2 µg/mL
B5 | 0.31 µg/mL

Target: T2, F protein of human metapneumovirus strain JPS02-76 (type B1), on infectious virus (human metapneumovirus, strain JPS02-76 …, UniProt Q6WB98 19-539)
Test: cell-based or functional assay

Binder | IC50, neutralizing activity (hMPV infection of LLC-MK2 cells)
B1 | 0.3 µg/mL
B2 | 0.46 µg/mL
B3 | 0.42 µg/mL
B4 | 0.74 µg/mL
B5 | 0.39 µg/mL

Target: T3, F protein of human metapneumovirus strain JPS05-21 (type B2), on infectious virus (human metapneumovirus, strain JPS05-21 …)
Test: cell-based or functional assay

Binder | IC50, neutralizing activity (hMPV infection of LLC-MK2 cells)
B1 | 0.18 µg/mL
B2 | 0.27 µg/mL
B3 | 0.22 µg/mL
B4 | 0.44 µg/mL
B5 | 0.27 µg/mL

Target: T4, F protein of human metapneumovirus strain JPS03-178 (type A2), on infectious virus (human metapneumovirus, strain JPS03-178 …)
Test: cell-based or functional assay

Binder | IC50, neutralizing activity (hMPV infection of LLC-MK2 cells; GraphPad Prism 6)
B1 | 0.0298 µg/mL
B2 | 0.0198 µg/mL
B3 | 0.0614 µg/mL
B4 | 2.11 µg/mL
B5 | 1.98 µg/mL

Target: T1, F protein of human metapneumovirus …
Test: cell-based or functional assay
Remark: another data set of the same source

Binder | IC50, neutralizing activity (hMPV infection of LLC-MK2 cells; GraphPad Prism 6)
B1 | 0.0618 µg/mL
B2 | 0.157 µg/mL
B3 | 0.212 µg/mL
B4 | 0.213 µg/mL
B5 | 0.326 µg/mL

Target: T3, F protein of human metapneumovirus …
Test: cell-based or functional assay
Remark: another data set of the same source

Binder | IC50, neutralizing activity (hMPV infection of LLC-MK2 cells; GraphPad Prism 6)
B1 | 0.202 µg/mL
B2 | 0.272 µg/mL
B3 | 0.273 µg/mL
B4 | 0.524 µg/mL
B5 | 0.253 µg/mL

Target: T2, F protein of human metapneumovirus …
Test: cell-based or functional assay
Remark: another data set of the same source

Binder | IC50, cell-to-cell spread inhibitory activity (LLC-MK2 cells stably expressing TMPRSS2) | IC90, cell-to-cell spread inhibitory activity (LLC-MK2 cells stably expressing TMPRSS2)
B1 | 0.0166 µg/mL | 0.065 µg/mL
B2 | 0.0572 µg/mL | 0.886 µg/mL
B3 | 0.0123 µg/mL | 0.0664 µg/mL
B4 | 0.0363 µg/mL | 0.171 µg/mL
B5 | 0.114 µg/mL | 0.506 µg/mL

Target: T4, F protein of human metapneumovirus …
Test: cell-based or functional assay
Remark: another data set of the same source

Binder | IC90, neutralizing activity (hMPV infection of LLC-MK2 cells; GraphPad Prism 6)
B1 | 0.101 µg/mL
B2 | 0.0967 µg/mL
B3 | 0.738 µg/mL
B4 | 2.52 µg/mL
B5 | 2.41 µg/mL

Target: T1, F protein of human metapneumovirus …
Test: cell-based or functional assay
Remark: another data set of the same source

Binder | IC90, neutralizing activity (hMPV infection of LLC-MK2 cells; GraphPad Prism 6)
B1 | 0.292 µg/mL
B2 | 0.402 µg/mL
B3 | 0.443 µg/mL
B4 | 0.863 µg/mL
B5 | 1.07 µg/mL

Target: T2, F protein of human metapneumovirus …
Test: cell-based or functional assay
Remark: another data set of the same source

Binder | IC90, neutralizing activity (hMPV infection of LLC-MK2 cells; GraphPad Prism 6)
B1 | 0.663 µg/mL
B2 | 0.735 µg/mL
B3 | 1.57 µg/mL
B4 | 2.18 µg/mL
B5 | 1.18 µg/mL

Target: T3, F protein of human metapneumovirus …
Test: cell-based or functional assay
Remark: another data set of the same source

Binder | IC90, neutralizing activity (hMPV infection of LLC-MK2 cells; GraphPad Prism 6)
B1 | 0.404 µg/mL
B2 | 1.29 µg/mL
B3 | 1.35 µg/mL
B4 | 0.836 µg/mL
B5 | 0.612 µg/mL

Target: T4, F protein of human metapneumovirus …
Test: cell-based or functional assay
Remark: another data set of the same source

Binder | IC60, neutralizing activity (hMPV infection of LLC-MK2 cells; GraphPad Prism 6)
B1 | 0.0373 µg/mL
B2 | 0.0266 µg/mL
B3 | 0.0971 µg/mL
B4 | 2.18 µg/mL
B5 | 2.06 µg/mL

Target: T1, F protein of human metapneumovirus …
Test: cell-based or functional assay
Remark: another data set of the same source

Binder | IC60, neutralizing activity (hMPV infection of LLC-MK2 cells; GraphPad Prism 6)
B1 | 0.0823 µg/mL
B2 | 0.186 µg/mL
B3 | 0.243 µg/mL
B4 | 0.276 µg/mL
B5 | 0.406 µg/mL

Target: T2, F protein of human metapneumovirus …
Test: cell-based or functional assay
Remark: another data set of the same source

Binder | IC60, neutralizing activity (hMPV infection of LLC-MK2 cells; GraphPad Prism 6)
B1 | 0.36 µg/mL
B2 | 0.627 µg/mL
B3 | 0.641 µg/mL
B4 | 0.883 µg/mL
B5 | 0.514 µg/mL

Target: T3, F protein of human metapneumovirus …
Test: cell-based or functional assay
Remark: another data set of the same source

Binder | IC60, neutralizing activity (hMPV infection of LLC-MK2 cells; GraphPad Prism 6)
B1 | 0.229 µg/mL
B2 | 0.363 µg/mL
B3 | 0.366 µg/mL
B4 | 0.571 µg/mL
B5 | 0.298 µg/mL
